In patent US20160244509A1:
Where two headings read alike, the source gives them in different places.

Key:
Assay in all cases: cell-based or functional assay
[1] = target: RSV F protein of RS virus subtype A strains (A2, X and 2006-1)
[2] = target: RSV F protein of RS virus subtype B strains (2007-2 and Z)
[3] = target: RSV F protein of RS virus subtype B strains (2007-2 and Z); remark: listed apart in the source
[4] = target: RSV F protein of RS virus subtype A strains (A2, X and 2006-1); remark: listed apart in the source

B1: D25 (B63D10-D25), monoclonal antibody from the B cell line (culture supernatant or purified from it) (antibody, V domains shown)
VH: QVQLVQSGAEVKKPGSSVMVSCQASGGPLRNYIINWLRQAPGQGPEWMGGIIPVLGTVHYAPKFQGRVTITADESTDTAYIHLISLRSEDTAMYYCATETALVVSTTYLPHYFDNWGQGTLVTVSS
VL: DIQMTQSPSSLSAAVGDRVTITCQASQDIVNYLNWYQQKPGKAPKLLIYVASNLETGVPSRFSGSGSGTDFSLTISSLQPEDVATYYCQQYDNLPLTFGGGTKVEIKRTV
IC50 values (ng/ml), RS virus neutralization, HEp2 cells, subtype A [1]: 3.3 ng/mL
IC50 values (ng/ml), RS virus neutralization, Vero cells, subtype A [1]: 3.4 ng/mL
IC50 values (ng/ml), RS virus neutralization, HEp2 cells, subtype B [2]: 14.3 ng/mL
IC50 values (ng/ml), RS virus neutralization, Vero cells, subtype B [2]: 9 ng/mL

B2: recombinant purified D25 (rD25), expressed in 293T cells (antibody, V domains shown)
VH: B1 VH
VL: B1 VL
IC50 values (ng/ml), RS virus neutralization, HEp2 cells, subtype A [1]: 2.1 ng/mL
IC50 values (ng/ml), RS virus neutralization, Vero cells, subtype A [1]: 1.6 ng/mL
IC50 values (ng/ml), RS virus neutralization, HEp2 cells, subtype B [2]: 1.9 ng/mL
IC50 values (ng/ml), RS virus neutralization, Vero cells, subtype B [2]: 0.3 ng/mL

B3: recombinant GENEART codon optimized D25 (rD25 GA) (antibody, V domains shown)
VH: B1 VH
VL: DIQMTQSPSSLSAAVGDRVTITCQASQDIVNYLNWYQQKPGKAPKLLIYVASNLETGVPSRFSGSGSGTDFSLTISSLQPEDVATYYCQQYDNLPLTFGGGTKVEIKR
IC50 values (ng/ml), RS virus neutralization, HEp2 cells, subtype B [3]: 1.3 ng/mL
IC50 values (ng/ml), RS virus neutralization, Vero cells, subtype B [3]: 1.2 ng/mL
IC50 values (ng/ml), RS virus neutralization, HEp2 cells, subtype A [4]: 5.3 ng/mL
IC50 values (ng/ml), RS virus neutralization, Vero cells, subtype A [4]: 3.2 ng/mL

B4: AM14 (antibody, V domains shown)
VH: EVQLVESGGGVVQPGRSLRLSCAASGFSFSHYAMHWVRQAPGKGLEWVAVISYDGENTYYADSVKGRFSISRDNSKNTVSLQMNSLRPEDTALYYCARDRIVDDYYYYGMDVWGQGATVTVSS
VL: DIQMTQSPSSLSASVGDRVTITCQASQDIKKYLNWYHQKPGKVPELLMHDASNLETGVPSRFSGRGSGTDFTLTISSLQPEDIGTYYCQQYDNLPPLTFGGGTKVEIKRTV
IC50 values (ng/ml), RS virus neutralization, HEp2 cells, subtype A [1]: 21.5 ng/mL
IC50 values (ng/ml), RS virus neutralization, Vero cells, subtype A [1]: 15.2 ng/mL
IC50 values (ng/ml), RS virus neutralization, HEp2 cells, subtype B [2]: 6.7 ng/mL
IC50 values (ng/ml), RS virus neutralization, Vero cells, subtype B [2]: 1.1 ng/mL

B5: AM16 (antibody, V domains shown)
VH: EVQLVETGGGLAQPGGSLRLSCAASGFTFSSYNMNWVRQAPGKGLEWVSHISAGSSYIYYSDSVKGRFTVSRDNVRNSVYLQMNSLRAADTAVYYCAREDYGPGNYYSPNWFDPWGQGTLVTVSS
VL: QSVVTQPPSVSGAPGQRVTISCTGSSSNIGAGYDVHWYQQLPGTAPKLLIYGNTNRPSGVSDRFSGSKSGTSASLAITGLQAEDEADYYCHSYDRSLSGSVFGGGTKLTV
IC50 values (ng/ml), RS virus neutralization, HEp2 cells, subtype A [1]: 286 ng/mL
IC50 values (ng/ml), RS virus neutralization, Vero cells, subtype A [1]: 304 ng/mL
IC50 values (ng/ml), RS virus neutralization, HEp2 cells, subtype B [2]: 125 ng/mL
IC50 values (ng/ml), RS virus neutralization, Vero cells, subtype B [2]: 126 ng/mL

B6: AM23 (antibody, V domains shown)
VH: EVQLVESGGNVVKPGTSLRLSCAATGFNFHNYGMNWVRQAPGKGLEWVAVVWYDGSKKYYADSVTGRFAISRDNSKNTLYLQMNSLRVEDTAVYYCVRDKVGPTPYFDSWGQGTLVTVSS
VL: SYVLTQPPSVSLAPGGTAAITCGRNNIGSETVHWYQQKPGQAPVLVVYDDDDRPSGIPERFSGSNSGNTATLTISRVEAGDEADYYCQVWDRSNYHQVFGGGTKLTV
IC50 values (ng/ml), RS virus neutralization, HEp2 cells, subtype A [1]: 25 ng/mL
IC50 values (ng/ml), RS virus neutralization, Vero cells, subtype A [1]: 19.4 ng/mL
IC50 values (ng/ml), RS virus neutralization, HEp2 cells, subtype B [2]: 191 ng/mL
IC50 values (ng/ml), RS virus neutralization, Vero cells, subtype B [2]: 169 ng/mL
